Key:
[1] = molecular target: T1, Abeta42 beta amyloid peptide (UniProt P05067 672-713); assay: competition ELISA, purified antibody against biotinylated 6E10 on coated beta amyloid; normalised to the row 'Mouse' (chimeric mouse 6E10); <1 improved
T1 construct: domain: Abeta42 beta amyloid peptide; also called Aβ42; Aβ

[2] = molecular target: T1, Abeta42 beta amyloid peptide; assay: competition ELISA, purified antibody 0.003-16 ug/ml against biotinylated 6E10 (chimeric mouse 6E10) on coated beta amyloid, n=2
[3] = molecular target: T1, Abeta42 beta amyloid peptide; assay: competition ELISA, NS0 supernatant titrated against 0.25 ug/ml biotinylated mouse 6E10 (mouse MDT-2007) on coated beta amyloid; IC50 normalised to mouse 6E10 (=1; <1 improved)
[4] = molecular target: T1, Abeta42 beta amyloid peptide; assay: competition ELISA, purified antibody on coated beta amyloid (Table 4), against the mouse reference
[5] = molecular target: T1, Abeta42 beta amyloid peptide; assay: competition ELISA, purified antibody against biotinylated 6E10 (chimeric mouse 6E10) on coated beta amyloid; the reference row itself

T1 sequence (P05067 672-713 limits assumed): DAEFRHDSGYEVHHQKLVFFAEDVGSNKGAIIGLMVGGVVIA

| Binder | Fold Difference (IC50 normalised to the reference) [1] [fold] | IC50 [2] [µg/mL] | fold difference in IC50 relative to mouse 6E10 [3] [fold] | fold increase in binding compared to the mouse reference [4] [fold] | Fold Difference (IC50 normalised to the reference) [5] [fold] |
| --- | --- | --- | --- | --- | --- |
| Composite human antibody variant VH4/VK1 (antibody, human IgG1, V domains shown, Human IgG1/kappa (pANT15/pANT13), NS0 cells; also called VH4/YK1) VH: QVQLVQSGAEVKKPGASVKVSCTASGFNIKDTYIHWVRQARGQRLEWIGRFDPVNVNTRYDSRFRGRVTITSDASTNTAYMELSSLRSEDTAVYYCSRSYYNGRRRFTYWGQGTLVTVSS VL: DIVMTQSPDSLTVSLGERATINCKASQSLLSSGNQKNYLTWYQQKPGQPPKLLIYWASIRESGVPDRFTGSGSGTFFTLTISSLQAEDVAVYYCQNDYNYPFTFGQGTKLEIK | 1.14 | 4.1 | 0.94 | – | – |
| Composite human antibody variant VH5/VK2 (antibody, human IgG1, V domains shown, Human IgG1/kappa (pANT15/pANT13), NS0 cells) VH: QVQLVQSGAEVKKPGASVKVSCTASGFNIKDTYIHWVRQARGQRLEWIGRFDPVNVNTRYDSRFRGRVTITSDASTSTAYMELSSLRSEDTAVYYCSRSYYNGRRRFTYWGQGTLVTVSS VL: DIVMTQSPSSLTASVGDRVTITCKASQSLLSSGNQKNYLTWYQQKPGQPPKLLIYWASIRESGVPDRFTGSGSGTFFTLTISSLQAEDVAVYYCQNDYNYPFTFGQGTKLEIK | 0.72 | 2.6 | 0.72 | – | – |
| Composite human antibody variant VH5/VK1 (antibody, human IgG1, V domains shown, Human IgG1/kappa (pANT15/pANT13), NS0 cells; also called VH5/YK1) VH: QVQLVQSGAEVKKPGASVKVSCTASGFNIKDTYIHWVRQARGQRLEWIGRFDPVNVNTRYDSRFRGRVTITSDASTSTAYMELSSLRSEDTAVYYCSRSYYNGRRRFTYWGQGTLVTVSS VL: DIVMTQSPDSLTVSLGERATINCKASQSLLSSGNQKNYLTWYQQKPGQPPKLLIYWASIRESGVPDRFTGSGSGTFFTLTISSLQAEDVAVYYCQNDYNYPFTFGQGTKLEIK | 0.91 | 3.3 | 0.8 | – | – |

Further lines, results first:

| Fold Difference (IC50 normalised to the reference) [1] [fold] | IC50 [2] [µg/mL] | fold difference in IC50 relative to mouse 6E10 [3] [fold] | fold increase in binding compared to the mouse reference [4] [fold] | Fold Difference (IC50 normalised to the reference) [5] [fold] | Binder |
| --- | --- | --- | --- | --- | --- |
| 0.57 | 2.1 | 0.67 | 1.72 | – | MDT-2007 (composite human antibody sequence variant VH4/VK2) (antibody, human IgG1, V domains shown, Human IgG1/kappa (pANT15/pANT13), NS0 cells) VH: QVQLVQSGAEVKKPGASVKVSCTASGFNIKDTYIHWVRQARGQRLEWIGRFDPVNVNTRYDSRFRGRVTITSDASTNTAYMELSSLRSEDTAVYYCSRSYYNGRRRFTYWGQGTLVTVSS VL: DIVMTQSPSSLTASVGDRVTITCKASQSLLSSGNQKNYLTWYQQKPGQPPKLLIYWASIRESGVPDRFTGSGSGTFFTLTISSLQAEDVAVYYCQNDYNYPFTFGQGTKLEIK |
| – | 3.6 | – | – | 1 | mouse 6E10 anti-Aβ antibody (antibody, V domains shown, Murine monoclonal from hybridoma 6E10 (Covance); also called 6E10 mouse antibody) VH: EVQLQQSGAELVKPGASVKLSCTASGFNIKDTYIHWVKQRPEQGLEWIGRFDPVNVNTRYDSRFRGKATITSDASSNTAYLHLNSLTSEDTAVYYCSRSYYNGRRRFTYWGQGTLVTVSA VL: DIVMTQSPSSLTVTAGEKVALTCKASQSLLSSGNQKNYLTWYQQKPGQPPKLLIYWASIRESGVPDRFTGSGSGTFFTLTISSVQAEDLAVYYCQNDYNYPFTFGSGTKLEIK |

— EP2586797A2 (Medtronic, Inc., dated 2013)
